Assay [1] concerns the target T1, human VEGF (hVEGF) (human, UniProt P15692 181-395).
T1 construct: also called VEGF-A
T1 sequence: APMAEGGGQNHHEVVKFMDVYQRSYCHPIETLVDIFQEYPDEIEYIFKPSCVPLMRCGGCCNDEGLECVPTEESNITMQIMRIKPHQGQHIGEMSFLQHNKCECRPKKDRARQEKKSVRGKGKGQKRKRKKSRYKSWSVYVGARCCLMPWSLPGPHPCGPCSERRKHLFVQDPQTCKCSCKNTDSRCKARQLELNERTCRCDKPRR
The assay can be described thus: SPR single-cycle.

The target of assay [2] is T1, human VEGF (hVEGF). As to the kind of experiment: SPR single-cycle. This is another data set of the same source.
From the text: To determine the binding affinity of selected Fab variants, SPR measurement with a BIACORE® T200 instrument was used. Briefly, series S sensor chip CM5 was activated with 1-ethyl-3-(3-dimethylaminopropyl) carbodiimide (EDC) and N-hydroxysuccinimide (NHS) reagents according to the supplier's instructions, and human VEGF (hVEGF) was coupled to achieve 50-80 response units (RU), then following by blocking un-reacted groups with 1M ethanolamine.
Three-fold serial dilutions of Fab in HBS-P buffer (0.01 M HEPES pH 7.4, 0.15 M NaCl, 0.005% surfactant P20) from low (0.02 nM) to high (50 nM) were injected (flow rate: 30 μl/min). The binding responses on hVEGF were corrected by subtracting of RU from a blank flow cell. The sensorgram was recorded and subject to reference and buffer subtraction before evaluating by BIACORE® T200 Evaluation Software (version 2.0). Association rates (kₒₙ) and dissociation rates (koff) were calculated using a simple one-to-one Langmuir binding model. The equilibrium dissociation constant (Kd) was calculated as the ratio koff/kₒₙ.

Like-named read-outs stand apart in the source and are kept apart here.

The results in this text go back to patent publication US20210115124A1 (Genentech, published 2021).

Broadly, the Kd is a measure of binding affinity in units of concentration. Read a low Kd as tighter binding. The term koff denotes a measure of how fast the partners let go of each other. A lower koff goes with slow dissociation. For orientation: kon means the second-order rate constant of association. A high value points to fast association.
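Throughout, for Fold change (relative to G6.31): fab variants injected over hVEGF immobilized on a CM5 chip (Biacore T200), threefold dilution series from 0.02 to 50 nM, kinetics fitted with a 1:1 Langmuir model.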

B1: G6.31 HC-A60M (Fab, name in Kabat numbering, V domains shown)
VH: EVQLVESGGGLVQPGGSLRLSCAASGFTISDYWIHWVRQAPGKGLEWVAGITPAGGYTYYMDSVKGRFTISADTSKNTAYLQMNSLRAEDTAVYYCARFVFFLPYAMDYWGQGTLVTVSS
VL: DIQMTQSPSSLSASVGDRVTITCRASQDVSTAVAWYQQKPGKAPKLLIYSASFLYSGVPSRFSGSGSGTDFTLTISSLQPEDFATYYCQQGYGNPFTFGQGTKVEIK
notes: Fab
As for B1, in assay [1], the “Fold difference (relative to G6.31)” value stood at 0.8 fold, binding was put at a Kd of 1.89 nM, the koff was determined as 0.000729 s⁻¹ and the kon was 386000 M⁻¹ s⁻¹.

B2: G6.31 LC-S77E (Fab, V domains shown)
VH: EVQLVESGGGLVQPGGSLRLSCAASGFTISDYWIHWVRQAPGKGLEWVAGITPAGGYTYYADSVKGRFTISADTSKNTAYLQMNSLRAEDTAVYYCARFVFFLPYAMDYWGQGTLVTVSS
VL: DIQMTQSPSSLSASVGDRVTITCRASQDVSTAVAWYQQKPGKAPKLLIYSASFLYSGVPSRFSGSGSGTDFTLTISELQPEDFATYYCQQGYGNPFTFGQGTKVEIK
notes: Fab
As for B2, in assay [2], the “Fold change (relative to G6.31)” value was 3 fold; the affinity, expressed as Kd, was 0.562 nM; the koff turned out to be 0.000399 s⁻¹; the kon amounted to 711000 M⁻¹ s⁻¹.

B3: G6.31 HC-S70H (Fab, name in Kabat numbering, V domains shown)
VH: EVQLVESGGGLVQPGGSLRLSCAASGFTISDYWIHWVRQAPGKGLEWVAGITPAGGYTYYADSVKGRFTIHADTSKNTAYLQMNSLRAEDTAVYYCARFVFFLPYAMDYWGQGTLVTVSS
VL: DIQMTQSPSSLSASVGDRVTITCRASQDVSTAVAWYQQKPGKAPKLLIYSASFLYSGVPSRFSGSGSGTDFTLTISSLQPEDFATYYCQQGYGNPFTFGQGTKVEIK
notes: Fab
For the molecule B3, in assay [1], the “Fold difference (relative to G6.31)” value turned out to be 1.5 fold, the Kd amounted to 1 nM, the koff came out at 0.00066 s⁻¹ and the kon stood at 658000 M⁻¹ s⁻¹.

B4: G6.31 LC-Q27E (Fab, V domains shown)
VH: EVQLVESGGGLVQPGGSLRLSCAASGFTISDYWIHWVRQAPGKGLEWVAGITPAGGYTYYADSVKGRFTISADTSKNTAYLQMNSLRAEDTAVYYCARFVFFLPYAMDYWGQGTLVTVSS
VL: DIQMTQSPSSLSASVGDRVTITCRASEDVSTAVAWYQQKPGKAPKLLIYSASFLYSGVPSRFSGSGSGTDFTLTISSLQPEDFATYYCQQGYGNPFTFGQGTKVEIK
notes: Fab
With B4, in assay [2], the “Fold change (relative to G6.31)” value was 0.9 fold, the Kd worked out at 1.96 nM, the koff is 0.00045 s⁻¹ and the association rate constant (kon) was 230000 M⁻¹ s⁻¹.

B5: G6.31 HC-I51H (Fab, name in Kabat numbering, V domains shown)
VH: EVQLVESGGGLVQPGGSLRLSCAASGFTISDYWIHWVRQAPGKGLEWVAGHTPAGGYTYYADSVKGRFTISADTSKNTAYLQMNSLRAEDTAVYYCARFVFFLPYAMDYWGQGTLVTVSS
VL: DIQMTQSPSSLSASVGDRVTITCRASQDVSTAVAWYQQKPGKAPKLLIYSASFLYSGVPSRFSGSGSGTDFTLTISSLQPEDFATYYCQQGYGNPFTFGQGTKVEIK
notes: Fab
Turning to B5, in assay [1], the “Fold difference (relative to G6.31)” value is 2.5 fold, the Kd was 0.62 nM, the koff came out at 0.00152 s⁻¹ and the kon is 2.48e+06 M⁻¹ s⁻¹.

B6: G6.31 LC-G93E (Fab, V domains shown)
VH: EVQLVESGGGLVQPGGSLRLSCAASGFTISDYWIHWVRQAPGKGLEWVAGITPAGGYTYYADSVKGRFTISADTSKNTAYLQMNSLRAEDTAVYYCARFVFFLPYAMDYWGQGTLVTVSS
VL: DIQMTQSPSSLSASVGDRVTITCRASQDVSTAVAWYQQKPGKAPKLLIYSASFLYSGVPSRFSGSGSGTDFTLTISSLQPEDFATYYCQQGYENPFTFGQGTKVEIK
notes: Fab
For the molecule B6, in assay [2], the “Fold change (relative to G6.31)” value is 0.3 fold; the affinity, expressed as Kd, was 5.98 nM; the koff was determined as 0.00149 s⁻¹; the kon is 248000 M⁻¹ s⁻¹.

B7: G6.31 LC-G57E (Fab, V domains shown)
VH: EVQLVESGGGLVQPGGSLRLSCAASGFTISDYWIHWVRQAPGKGLEWVAGITPAGGYTYYADSVKGRFTISADTSKNTAYLQMNSLRAEDTAVYYCARFVFFLPYAMDYWGQGTLVTVSS
VL: DIQMTQSPSSLSASVGDRVTITCRASQDVSTAVAWYQQKPGKAPKLLIYSASFLYSEVPSRFSGSGSGTDFTLTISSLQPEDFATYYCQQGYGNPFTFGQGTKVEIK
notes: Fab
In the case of B7, in assay [2], the “Fold change (relative to G6.31)” value was determined as 1.7 fold, the equilibrium dissociation constant (Kd) is 0.974 nM, the koff worked out at 0.000418 s⁻¹ and the kon was found to be 429000 M⁻¹ s⁻¹.

B8: G6.31 LC-T72R (Fab, V domains shown)
VH: EVQLVESGGGLVQPGGSLRLSCAASGFTISDYWIHWVRQAPGKGLEWVAGITPAGGYTYYADSVKGRFTISADTSKNTAYLQMNSLRAEDTAVYYCARFVFFLPYAMDYWGQGTLVTVSS
VL: DIQMTQSPSSLSASVGDRVTITCRASQDVSTAVAWYQQKPGKAPKLLIYSASFLYSGVPSRFSGSGSGTDFRLTISSLQPEDFATYYCQQGYGNPFTFGQGTKVEIK
notes: Fab
With B8, in assay [2], the “Fold change (relative to G6.31)” value was 1.1 fold, the Kd amounted to 1.53 nM, the koff amounted to 0.000446 s⁻¹ and the kon amounted to 292000 M⁻¹ s⁻¹.

B9: G6.31 LC-Y92E (Fab, V domains shown)
VH: EVQLVESGGGLVQPGGSLRLSCAASGFTISDYWIHWVRQAPGKGLEWVAGITPAGGYTYYADSVKGRFTISADTSKNTAYLQMNSLRAEDTAVYYCARFVFFLPYAMDYWGQGTLVTVSS
VL: DIQMTQSPSSLSASVGDRVTITCRASQDVSTAVAWYQQKPGKAPKLLIYSASFLYSGVPSRFSGSGSGTDFTLTISSLQPEDFATYYCQQGEGNPFTFGQGTKVEIK
notes: Fab
As for B9, in assay [2], the “Fold change (relative to G6.31)” value was 0.8 fold, the Kd stood at 2.07 nM, the koff was found to be 0.00103 s⁻¹ and the kon was determined as 497000 M⁻¹ s⁻¹.

B10: G6.31 LC-P59E (Fab, V domains shown)
VH: EVQLVESGGGLVQPGGSLRLSCAASGFTISDYWIHWVRQAPGKGLEWVAGITPAGGYTYYADSVKGRFTISADTSKNTAYLQMNSLRAEDTAVYYCARFVFFLPYAMDYWGQGTLVTVSS
VL: DIQMTQSPSSLSASVGDRVTITCRASQDVSTAVAWYQQKPGKAPKLLIYSASFLYSGVESRFSGSGSGTDFTLTISSLQPEDFATYYCQQGYGNPFTFGQGTKVEIK
notes: Fab
Consider B10, for which, in assay [2], the “Fold change (relative to G6.31)” value turned out to be 1.1 fold, binding was put at a Kd of 1.56 nM, the koff was determined as 0.000444 s⁻¹ and the kon was found to be 284000 M⁻¹ s⁻¹.

B11: G6.31 LC-A51E (Fab, V domains shown)
VH: EVQLVESGGGLVQPGGSLRLSCAASGFTISDYWIHWVRQAPGKGLEWVAGITPAGGYTYYADSVKGRFTISADTSKNTAYLQMNSLRAEDTAVYYCARFVFFLPYAMDYWGQGTLVTVSS
VL: DIQMTQSPSSLSASVGDRVTITCRASQDVSTAVAWYQQKPGKAPKLLIYSESFLYSGVPSRFSGSGSGTDFTLTISSLQPEDFATYYCQQGYGNPFTFGQGTKVEIK
notes: Fab
For the molecule B11, in assay [2], the “Fold change (relative to G6.31)” value is 0.6 fold, the Kd turned out to be 2.68 nM, the koff amounted to 0.000462 s⁻¹ and the kon amounted to 172000 M⁻¹ s⁻¹.

B12: G6.31 LC-T31R (Fab, V domains shown)
VH: EVQLVESGGGLVQPGGSLRLSCAASGFTISDYWIHWVRQAPGKGLEWVAGITPAGGYTYYADSVKGRFTISADTSKNTAYLQMNSLRAEDTAVYYCARFVFFLPYAMDYWGQGTLVTVSS
VL: DIQMTQSPSSLSASVGDRVTITCRASQDVSRAVAWYQQKPGKAPKLLIYSASFLYSGVPSRFSGSGSGTDFTLTISSLQPEDFATYYCQQGYGNPFTFGQGTKVEIK
notes: Fab
B12: in assay [2], the “Fold change (relative to G6.31)” value came out at 0.9 fold, the Kd worked out at 1.8 nM, the koff was determined as 0.000489 s⁻¹ and the kon turned out to be 271000 M⁻¹ s⁻¹.

B13: G6.31 LC-P40E (Fab, V domains shown)
VH: EVQLVESGGGLVQPGGSLRLSCAASGFTISDYWIHWVRQAPGKGLEWVAGITPAGGYTYYADSVKGRFTISADTSKNTAYLQMNSLRAEDTAVYYCARFVFFLPYAMDYWGQGTLVTVSS
VL: DIQMTQSPSSLSASVGDRVTITCRASQDVSTAVAWYQQKEGKAPKLLIYSASFLYSGVPSRFSGSGSGTDFTLTISSLQPEDFATYYCQQGYGNPFTFGQGTKVEIK
notes: Fab
As for B13, in assay [2], the “Fold change (relative to G6.31)” value is 0.1 fold, binding was characterised by a dissociation constant (Kd) of 17.9 nM, the koff was 0.000541 s⁻¹ and the kon was 30300 M⁻¹ s⁻¹.

B14: G6.31 LC-S50R (Fab, V domains shown)
VH: EVQLVESGGGLVQPGGSLRLSCAASGFTISDYWIHWVRQAPGKGLEWVAGITPAGGYTYYADSVKGRFTISADTSKNTAYLQMNSLRAEDTAVYYCARFVFFLPYAMDYWGQGTLVTVSS
VL: DIQMTQSPSSLSASVGDRVTITCRASQDVSTAVAWYQQKPGKAPKLLIYRASFLYSGVPSRFSGSGSGTDFTLTISSLQPEDFATYYCQQGYGNPFTFGQGTKVEIK
notes: Fab
In the case of B14, in assay [2], the “Fold change (relative to G6.31)” value was found to be 0.9 fold, binding was put at a Kd of 1.89 nM, the koff came out at 0.000464 s⁻¹ and the kon stood at 245000 M⁻¹ s⁻¹.

B15: G6.31 HC-Q81W (Fab, name in Kabat numbering, V domains shown)
VH: EVQLVESGGGLVQPGGSLRLSCAASGFTISDYWIHWVRQAPGKGLEWVAGITPAGGYTYYADSVKGRFTISADTSKNTAYLWMNSLRAEDTAVYYCARFVFFLPYAMDYWGQGTLVTVSS
VL: DIQMTQSPSSLSASVGDRVTITCRASQDVSTAVAWYQQKPGKAPKLLIYSASFLYSGVPSRFSGSGSGTDFTLTISSLQPEDFATYYCQQGYGNPFTFGQGTKVEIK
notes: Fab
B15: in assay [1], the “Fold difference (relative to G6.31)” value is 3.4 fold, the Kd amounted to 0.45 nM, the koff amounted to 0.000542 s⁻¹ and the kon came to 1.2e+06 M⁻¹ s⁻¹.

B16: G6.31 LC-Y55E (Fab, V domains shown)
VH: EVQLVESGGGLVQPGGSLRLSCAASGFTISDYWIHWVRQAPGKGLEWVAGITPAGGYTYYADSVKGRFTISADTSKNTAYLQMNSLRAEDTAVYYCARFVFFLPYAMDYWGQGTLVTVSS
VL: DIQMTQSPSSLSASVGDRVTITCRASQDVSTAVAWYQQKPGKAPKLLIYSASFLESGVPSRFSGSGSGTDFTLTISSLQPEDFATYYCQQGYGNPFTFGQGTKVEIK
notes: Fab
As for B16, in assay [2], the “Fold change (relative to G6.31)” value was found to be 0.1 fold, the Kd is 11.7 nM, the koff was found to be 0.000531 s⁻¹ and the kon was determined as 45300 M⁻¹ s⁻¹.
